Laboratory results reported in US20260176314.

T1: FLAG_SERPINB14_HiBiT
T1 chain: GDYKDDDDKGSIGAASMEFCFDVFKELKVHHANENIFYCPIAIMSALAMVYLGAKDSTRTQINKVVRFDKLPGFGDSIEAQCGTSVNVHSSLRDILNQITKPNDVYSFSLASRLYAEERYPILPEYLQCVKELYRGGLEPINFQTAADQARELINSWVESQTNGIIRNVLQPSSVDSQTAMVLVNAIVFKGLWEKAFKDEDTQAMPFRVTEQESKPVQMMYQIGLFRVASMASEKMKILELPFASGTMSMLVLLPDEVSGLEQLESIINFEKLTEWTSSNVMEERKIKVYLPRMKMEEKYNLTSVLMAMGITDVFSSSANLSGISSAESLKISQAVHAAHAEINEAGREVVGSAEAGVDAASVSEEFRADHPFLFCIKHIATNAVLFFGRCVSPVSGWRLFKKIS

B1: ScKRE2(M1-S80)_Fam20c(D93-R584)_FLAG (protein)
chain: MALFLSKRLLRFTVIAGAVIVLLLTLNSNSRTQQYIPSSISAAFDFTSGSISPEQQVISEENDAKKLEQSALNSEASEDSDFSSDPSSNLSSHSLEKLPPAAEPAERALRGRDPGALRPHDPAHRPLLRDPGPRRSESPPGPGGDASLLARLFEHPLYRVAVPPLTEEDVLFNVNSDTRLSPKAAENPDWPHAGAEGAEFLSPGEAAVDSYPNWLKFHIGINRYELYSRHNPAIEALLHDLSSQRITSVAMKSGGTQLKLIMTFQNYGQALFKPMKQTREQETPPDFFYFSDYERHNAEIAAFHLDRILDFRRVPPVAGRMVNMTKEIRDVTRDKKLWRTFFISPANNICFYGECSYYCSTEHALCGKPDQIEGSLAAFLPDLSLAKRKTWRNPWRRSYHKRKKAEWEVDPDYCEEVKQTPPYDSSHRILDVMDMTIFDFLMGNMDRHHYETFEKFGNETFIIHLDNGRGFGKYSHDELSILVPLQQCCRIRKSTYLRLQLLAKEEYKLSLLMAESLRGDQVAPVLYQPHLEALDRRLRVVLKAVRDCVERNGLHSVVDDDLDTEHRAASARDYKDDDDK
B2: ScMNN6(M1-P30)_Fam20c(R32-R584)_FLAG (protein)
chain: RLERRGARPSGEPGCSCAQPAAEVAAPGWAQVRGRPGEPPAASSAAGDAGWPNKHTLRILQDFSSDPSSNLSSHSLEKLPPAAEPAERALRGRDPGALRPHDPAHRPLLRDPGPRRSESPPGPGGDASLLARLFEHPLYRVAVPPLTEEDVLFNVNSDTRLSPKAAENPDWPHAGAEGAEFLSPGEAAVDSYPNWLKFHIGINRYELYSRHNPAIEALLHDLSSQRITSVAMKSGGTQLKLIMTFQNYGQALFKPMKQTREQETPPDFFYFSDYERHNAEIAAFHLDRILDFRRVPPVAGRMVNMTKEIRDVTRDKKLWRTFFISPANNICFYGECSYYCSTEHALCGKPDQIEGSLAAFLPDLSLAKRKTWRNPWRRSYHKRKKAEWEVDPDYCEEVKQTPPYDSSHRILDVMDMTIFDFLMGNMDRHHYETFEKFGNETFIIHLDNGRGFGKYSHDELSILVPLQQCCRIRKSTYLRLQLLAKEEYKLSLLMAESLRGDQVAPVLYQPHLEALDRRLRVVLKAVRDCVERNGLHSVVDDDLDTEHRAASARDYKDDDDK
B3: Fam20c(M1-R584)_MYC (protein)
chain: MKMMLVRRFRVLILMVFLVACALHIALDLLPRLERRGARPSGEPGCSCAQPAAEVAAPGWAQVRGRPGEPPAASSAAGDAGWPNKHTLRILQDFSSDPSSNLSSHSLEKLPPAAEPAERALRGRDPGALRPHDPAHRPLLRDPGPRRSESPPGPGGDASLLARLFEHPLYRVAVPPLTEEDVLFNVNSDTRLSPKAAENPDWPHAGAEGAEFLSPGEAAVDSYPNWLKFHIGINRYELYSRHNPAIEALLHDLSSQRITSVAMKSGGTQLKLIMTFQNYGQALFKPMKQTREQETPPDFFYFSDYERHNAEIAAFHLDRILDFRRVPPVAGRMVNMTKEIRDVTRDKKLWRTFFISPANNICFYGECSYYCSTEHALCGKPDQIEGSLAAFLPDLSLAKRKTWRNPWRRSYHKRKKAEWEVDPDYCEEVKQTPPYDSSHRILDVMDMTIFDFLMGNMDRHHYETFEKFGNETFIIHLDNGRGFGKYSHDELSILVPLQQCCRIRKSTYLRLQLLAKEEYKLSLLMAESLRGDQVAPVLYQPHLEALDRRLRVVLKAVRDCVERNGLHSVVDDDLDTEHRAASAREQKLISEEDL
B4: ScMNN2(M1-P97)_Fam20c(R32-R584)_FLAG (protein)
chain: MLLTKRFSKLFKLTFIVLILCGLFVITNKYMDENTSVKEYKEYLDRYVQSYSNKYSSSSDAASADDSTPLRDNDEAGNEKLKSFYNNVFNFLMVDSPRLERRGARPSGEPGCSCAQPAAEVAAPGWAQVRGRPGEPPAASSAAGDAGWPNKHTLRILQDFSSDPSSNLSSHSLEKLPPAAEPAERALRGRDPGALRPHDPAHRPLLRDPGPRRSESPPGPGGDASLLARLFEHPLYRVAVPPLTEEDVLFNVNSDTRLSPKAAENPDWPHAGAEGAEFLSPGEAAVDSYPNWLKFHIGINRYELYSRHNPAIEALLHDLSSQRITSVAMKSGGTQLKLIMTFQNYGQALFKPMKQTREQETPPDFFYFSDYERHNAEIAAFHLDRILDFRRVPPVAGRMVNMTKEIRDVTRDKKLWRTFFISPANNICFYGECSYYCSTEHALCGKPDQIEGSLAAFLPDLSLAKRKTWRNPWRRSYHKRKKAEWEVDPDYCEEVKQTPPYDSSHRILDVMDMTIFDFLMGNMDRHHYETFEKFGNETFIIHLDNGRGFGKYSHDELSILVPLQQCCRIRKSTYLRLQLLAKEEYKLSLLMAESLRGDQVAPVLYQPHLEALDRRLRVVLKAVRDCVERNGLHSVVDDDLDTEHRAASARDYKDDDDK
B5: ScMNN2(M1-S150)_Fam20c(R32-R584)_FLAG (protein)
chain: MLLTKRFSKLFKLTFIVLILCGLFVITNKYMDENTSVKEYKEYLDRYVQSYSNKYSSSSDAASADDSTPLRDNDEAGNEKLKSFYNNVFNFLMVDSPKGSTAKQYNEACLLKGDIGDRPDHYKDLYKLSAKELSKCLELSPDEVASLTKSRLERRGARPSGEPGCSCAQPAAEVAAPGWAQVRGRPGEPPAASSAAGDAGWPNKHTLRILQDFSSDPSSNLSSHSLEKLPPAAEPAERALRGRDPGALRPHDPAHRPLLRDPGPRRSESPPGPGGDASLLARLFEHPLYRVAVPPLTEEDVLFNVNSDTRLSPKAAENPDWPHAGAEGAEFLSPGEAAVDSYPNWLKFHIGINRYELYSRHNPAIEALLHDLSSQRITSVAMKSGGTQLKLIMTFQNYGQALFKPMKQTREQETPPDFFYFSDYERHNAEIAAFHLDRILDFRRVPPVAGRMVNMTKEIRDVTRDKKLWRTFFISPANNICFYGECSYYCSTEHALCGKPDQIEGSLAAFLPDLSLAKRKTWRNPWRRSYHKRKKAEWEVDPDYCEEVKQTPPYDSSHRILDVMDMTIFDFLMGNMDRHHYETFEKFGNETFIIHLDNGRGFGKYSHDELSILVPLQQCCRIRKSTYLRLQLLAKEEYKLSLLMAESLRGDQVAPVLYQPHLEALDRRLRVVLKAVRDCVERNGLHSVVDDDLDTEHRAASARDYKDDDDK
B6: ScKRE(M1-I58)_Fam20c(R32-R584)_FLAG (protein)
chain: MALFLSKRLLRFTVIAGAVIVLLLTLNSNSRTQQYIPSSISAAFDFTSGSISPEQQVIRLERRGARPSGEPGCSCAQPAAEVAAPGWAQVRGRPGEPPAASSAAGDAGWPNKHTLRILQDFSSDPSSNLSSHSLEKLPPAAEPAERALRGRDPGALRPHDPAHRPLLRDPGPRRSESPPGPGGDASLLARLFEHPLYRVAVPPLTEEDVLFNVNSDTRLSPKAAENPDWPHAGAEGAEFLSPGEAAVDSYPNWLKFHIGINRYELYSRHNPAIEALLHDLSSQRITSVAMKSGGTQLKLIMTFQNYGQALFKPMKQTREQETPPDFFYFSDYERHNAEIAAFHLDRILDFRRVPPVAGRMVNMTKEIRDVTRDKKLWRTFFISPANNICFYGECSYYCSTEHALCGKPDQIEGSLAAFLPDLSLAKRKTWRNPWRRSYHKRKKAEWEVDPDYCEEVKQTPPYDSSHRILDVMDMTIFDFLMGNMDRHHYETFEKFGNETFIIHLDNGRGFGKYSHDELSILVPLQQCCRIRKSTYLRLQLLAKEEYKLSLLMAESLRGDQVAPVLYQPHLEALDRRLRVVLKAVRDCVERNGLHSVVDDDLDTEHRAASARDYKDDDDK
B7: ScMNN1(M1-A42)_Fam20c(D93-R584)_FLAG (protein)
chain: MLALRRFILNQRSLRSCTIPILVGALIIILVLFQLVTHRNDADFSSDPSSNLSSHSLEKLPPAAEPAERALRGRDPGALRPHDPAHRPLLRDPGPRRSESPPGPGGDASLLARLFEHPLYRVAVPPLTEEDVLFNVNSDTRLSPKAAENPDWPHAGAEGAEFLSPGEAAVDSYPNWLKFHIGINRYELYSRHNPAIEALLHDLSSQRITSVAMKSGGTQLKLIMTFQNYGQALFKPMKQTREQETPPDFFYFSDYERHNAEIAAFHLDRILDFRRVPPVAGRMVNMTKEIRDVTRDKKLWRTFFISPANNICFYGECSYYCSTEHALCGKPDQIEGSLAAFLPDLSLAKRKTWRNPWRRSYHKRKKAEWEVDPDYCEEVKQTPPYDSSHRILDVMDMTIFDFLMGNMDRHHYETFEKFGNETFIIHLDNGRGFGKYSHDELSILVPLQQCCRIRKSTYLRLQLLAKEEYKLSLLMAESLRGDQVAPVLYQPHLEALDRRLRVVLKAVRDCVERNGLHSVVDDDLDTEHRAASARDYKDDDDK
B8: ScMNN2(M1-S36)_Fam20c(R32-R584)_FLAG (protein)
chain: MLLTKRFSKLFKLTFIVLILCGLFVITNKYMDENTSRLERRGARPSGEPGCSCAQPAAEVAAPGWAQVRGRPGEPPAASSAAGDAGWPNKHTLRILQDFSSDPSSNLSSHSLEKLPPAAEPAERALRGRDPGALRPHDPAHRPLLRDPGPRRSESPPGPGGDASLLARLFEHPLYRVAVPPLTEEDVLFNVNSDTRLSPKAAENPDWPHAGAEGAEFLSPGEAAVDSYPNWLKFHIGINRYELYSRHNPAIEALLHDLSSQRITSVAMKSGGTQLKLIMTFQNYGQALFKPMKQTREQETPPDFFYFSDYERHNAEIAAFHLDRILDFRRVPPVAGRMVNMTKEIRDVTRDKKLWRTFFISPANNICFYGECSYYCSTEHALCGKPDQIEGSLAAFLPDLSLAKRKTWRNPWRRSYHKRKKAEWEVDPDYCEEVKQTPPYDSSHRILDVMDMTIFDFLMGNMDRHHYETFEKFGNETFIIHLDNGRGFGKYSHDELSILVPLQQCCRIRKSTYLRLQLLAKEEYKLSLLMAESLRGDQVAPVLYQPHLEALDRRLRVVLKAVRDCVERNGLHSVVDDDLDTEHRAASARDYKDDDDK

What was measured:
[1] = target: FLAG_TRX_SPP1 (G158-N314)_HiBiT
FLAG_SERPINB14_HiBiT = target: T1, FLAG_SERPINB14_HiBiT

Sequence of FLAG_TRX_SPP1 (G158-N314)_HiBiT (chain, as listed by the source): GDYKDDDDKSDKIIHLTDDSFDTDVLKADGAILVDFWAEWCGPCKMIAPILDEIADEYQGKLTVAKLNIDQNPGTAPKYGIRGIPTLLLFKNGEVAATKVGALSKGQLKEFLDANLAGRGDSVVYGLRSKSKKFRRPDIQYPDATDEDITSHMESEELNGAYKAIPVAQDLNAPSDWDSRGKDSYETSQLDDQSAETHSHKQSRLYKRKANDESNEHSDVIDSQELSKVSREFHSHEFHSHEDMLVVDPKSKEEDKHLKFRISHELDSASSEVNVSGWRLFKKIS

Protein	Phosphorylation [1]	phosphorylation sites detected by LC-MS/MS after co-expression in Pichia pastoris (FLAG_SERPINB14_HiBiT)
B1	Yes	
B2	Yes	
B3	Yes	S69, T76, T92, S99, S165, T202, S206, and S345
B4	Yes	
B5	Yes	
B6	Yes	
B7	Yes	
B8	Yes	
